Paper PMC8772750
Like-named read-outs stand apart in the source and are kept apart here.

Key:
human α-thrombin (human) [1] = biological target: human α-thrombin (human) (UniProt P00734)
human α-thrombin (human) [2] = biological target: human α-thrombin (human) (UniProt P00734); assay: enzyme inhibition kinetics (thrombin amidolytic assay with S-2238); tight-binding assay: inhibitor incubated with 500 pM thrombin for 30 min at 37 °C, then S-2238 added to 50-500 µM; 50 mM Tris-HCl pH 8.4, 150 mM NaCl, 0.1% PEG 6000; Morrison equation for tight-binding competitive inhibitors, apparent Ki' plotted against substrate concentration to obtain Ki
[3] = biological target: Variegin (Amblyomma variegatum) (UniProt P85800); details: cited from earlier work
[4] = biological target: Variegin (Amblyomma variegatum) (UniProt P85800); details: cited from earlier work; remark: listed apart in the source

Row | Substance | IC50 of inhibition of thrombin amidolytic activity (500 pM thrombin, 100 µM S-2238), preincubation 0 min (human α-thrombin (human) [1]) | IC50 of inhibition of thrombin amidolytic activity (500 pM thrombin, 100 µM S-2238), preincubation 30 min (human α-thrombin (human) [1]) | Ki (human α-thrombin (human) [2]) | Ki [3] | Ki [4]
1 | recombinant variegin from the tick Amblyomma variegatum (from UniProt P85800 1-32) (peptide) | 14.6 nM | 18.4 nM | 0.372 nM |  | 
2 | recombinant anophelin from Anopheles albimanus (natural protein) | 6.35 nM | 6.78 nM | 0.0994 nM |  | 
3 | recombinant haemadin from the leech Haemadipsa sylvestris (natural protein) | 22 pM | 33.1 pM | 0.000237 nM |  | 
4 | recombinant hirudin-1 from Hirudo medicinalis (desirudin) (from UniProt P01050 1-65) (natural protein) | 21.5 pM | 28 pM | 0.000217 nM |  | 
5 | Thrombin (from UniProt P00734) |  |  |  | 14 nM | 0.0104 nM
